B1: OR4K15 (parent)
chain: GUUAACGGUCAUAGGCCAUGGAAACUAGGAGCACCAUUUCGCUGCCAGUGAAGAAAUGAACAAAGAAAAUCUGGGCCAGGCAGGCAUCAAAAGAAAUAGUCUUGCGCUCAACCAGAAAGUCUGUAAUCAUUUUAAGGGUA

The data set covers variants of B1. Kind of data set: self-cleavage, relative activity (ratio to wild type); higher = more cleavage; in vitro, sequencing; the parent is a self-cleaving ribozyme.
On to GUUAACGGUCAUAGGCCAUGGAAACUAGGAGCACCAUUUCGCUGCCAGUGAAGAAAUGAACAAAGAAAAUCUGGGCCAGGCAGGCAUCAAAAGAAGUAGUCUUGCGCUCAACCAGAAAGUCUGUAAACAUUUUAAGGGUA, for which the self-cleavage is 2.73.
In the case of GUUAACGGUCAUAGGCCAUGGAAACUAGGAGCACCAUUUCGCUGCCAGUGAGGAAAUGAACAAAGAAAAUCUGGGCCAGGCAGGCAUCAAAAGAAAUAGUCUUGCGCUCAACCAGAAAGUUUGUAAUCAUUUUAAGGGUA, the self-cleavage worked out at 1.18.
With GUUAACGGUCAUAGGCCAUGGAAACUAGGAGCACCAUUUCGCUGCCAGUGAAGAAAUGAACAAAGAAAGUCUGGGCCAGGCAGGCAUCAAAAGAAAUAGUCUUGCGCUCAACCAGAAAGUCUGUGAUCAUUUUAAGGGUA, the self-cleavage was 0.39.
Under GUUAACGGUCAUAGGCCAUGGAAACUAGGAGCACCAUUUCGCUGCCAGUGAAGAAAUGAACAAAGAAAAUCUGGGCCAGGCAGGCAUCAAAAGAAAUAGUCCUGCGCUCAACCAGAAAGUCUGUAAUCAUUUUAAGGGUA stands 1.82; under GUUAACGGUCAUAGGCCAUGGAAACUAGGAGCACCAUUUCGCUGCCAGUGAAGAAAUGAACAGAGAAAAUCUGGGCCAGGCAGGCAUCAAAAGAAAUAGUCUUGCGCUCAACCAGAGAGUCUGUAAUCAUUUUAAGGGUA, 1.69.
As to GUUAACGGUCAUAGGCCAUGGAAACUAGGAGCACCAUUUCGCUGCCAGUGAAGAAAUGAACAAAGAAAAUCUGGGCCAGGCAGGCAGCAAAAGAAAUAGUCUUGCGCUCAACCAGAAAGUCUGUAACCAUUUUAAGGGUA, the self-cleavage was determined as 0.22.
Under GUUAACGGUCAUAGGCCAUGGAAACUAGGAGCACCAUUUCGCUGCCAGUGAAGAAAUGAACAAAGAAAAUCUGGGCCAGGCAGGCAUCAAAAGAAAUAGUCUUGCGCUCAACCAGAAAGUCUGUACUCAUUUUAAGGGUA stands 0.52; under GUUAACGGUCAUAGGCCAUGGAAACUAGGAGCACUAUUUCGCUGCCAGUGAAGAAAUGAACAAAGAAAAUCUGGGCCAGGCAGGCAUCAAAAGAAAUAGUCUUGCGCUCAACCAGAAAGUCUGUAAUCAUUCUAAGGGUA, 0.37.
Regarding GUUAACGGUCAUAGGCCAUGGAUACUAGGAGCACCAUUUCGCAGCCAGUGAAGAAAUGAACAAAGAAAAUCUGGGCCAGGCAGGCAUCAAAAGAAAUAGUCUUGCGCUCAACCAGAAAGUCUGUAAUCAUUUUAAGGGUA, the self-cleavage was determined as 1.44.
Regarding GUUAACGGUCAUAGGCCAUGGUAACUAGGAGCACCAUUUCGCUGCCAGUGAAGAAAUGAACAAAGAAAAUCUGGGCCAGGCAGGCAUCAAAAGAAAUAGUCUUGCGCUCAACCAGAAAGUCCGUAAUCAUUUUAAGGGUA, the self-cleavage was determined as 1.37.
Turning to GUUAACGGUCAUAGGCCACGGAAACUAGGAGCACCAUUUCGCUGCCAGUGAAGAAAUGAACAAAGAAAAUCUGGGCCAGGCAGGCAUCAAAAGAAAUAGUCUUGGGCUCAACCAGAAAGUCUGUAAUCAUUUUAAGGGUA, the self-cleavage came out at 0.04.
Take GUUACCGGUCAUAGGCCAUGGAAACUAGGAGCACCAUUUCGCUGCCAGUGAAGAAAUGAACAAAGAAAAUCUGGGCCAGGCAGGCAUCAAAAGAAAUAGUCUUGCUCUCAACCAGAAAGUCUGUAAUCAUUUUAAGGGUA: the self-cleavage amounted to 0.07.
Regarding GUUAACGGUCAUGGGCCAUGGAAACUAGGAGCACCAUUUCGCUGCCAGUGAAGAAAUGAACAAAGAAAAUCUGGGCCAGGCAGGCAUCAGAAGAAAUAGUCUUGCGCUCAACCAGAAAGUCUGUAAUCAUUUUAAGGGUA, the self-cleavage came out at 1.15.
Take GUUAACGGUCAUAGGCCAUGGAAACUAGGAGCACCAUUUCGCUGCCAGUGAAGCAAUGAACAAAGAAAAUCUGGGCCAGGCAGGCAUCAAAAGAAAUAGUCUUGCGCUCAACCAGGAAGUCUGUAAUCAUUUUAAGGGUA: the self-cleavage stood at 0.17.
Under GUUAACGGUCAUAGGCCAUGGAAACUAGGAGCACCAUUUCGCUGCCAGUGAAGAAAUGAACAAAGAAGAUCUGGGCCAGGCAGGCAUCAAAAGAAAUAGUCUUGCGCUCUACCAGAAAGUCUGUAAUCAUUUUAAGGGUA stands 1.49.
To GUUAACGGUCAUAGGCCAUGGAAACUAGGAGCACCAUUUCGCUGCCAGUGAAGAAAUGUACAAAGAAAAUCUGGGCCAGGCAGGCAUCACAAGAAAUAGUCUUGCGCUCAACCAGAAAGUCUGUAAUCAUUUUAAGGGUA belongs 1.63.
Under GUUAACGGUCAUAGGCCAUGGAAACUAGGAGCACCAUUUCGCUGCCAGUGAGGAAAUGAACAAAGAAAAUCUGGGCCAGGCAGGCAUCAAAAGAAAUAGUCUUGCGCUCAACCAGAAAGUCUGUAAUCAUUUUAGGGGUA stands 1.44; under GUUAACGGUCAUAGGCCAUGGAAACUAGGAGCACCAUUUCGCUGCCAGGGAAGAAAUGGACAAAGAAAAUCUGGGCCAGGCAGGCAUCAAAAGAAAUAGUCUUGCGCUCAACCAGAAAGUCUGUAAUCAUUUUAAGGGUA, 0.95.
Turning to GUUAACGGUCAUAGGCCAUGGAAACUAGGAGCACCAUUUCGCUGCCAGUGAAGAAAUGAACAAAGAAAAUCUGGGCCAGGCAAGCAUCAGAAGAAAUAGUCUUGCGCUCAACCAGAAAGUCUGUAAUCAUUUUAAGGGUA, the self-cleavage came to 1.34.
Regarding GUUGACGGUCAUAGGCCAUGGAAACUAGGAGCACCAUUUCGCUGCCAGUGAAGAAAUGAACAAAGAAAAUCUGGGCCGGGCAGGCAUCAAAAGAAAUAGUCUUGCGCUCAACCAGAAAGUCUGUAAUCAUUUUAAGGGUA, the self-cleavage turned out to be 0.59.
Turning to GUUAACGGUCAUAGGCCAUGGAUACUAGGAGCACCAUUUCGCUGCCAGUGAAGAAAUGAACAAAGAAAAUCUGGGCCAAGCAGGCAUCAAAAGAAAUAGUCUUGCGCUCAACCAGAAAGUCUGUAAUCAUUUUAAGGGUA, the self-cleavage was 0.16.
To GUUAACGGUCAUAGGCCAUGGAAACUAGGAGCACCAUUUCGCUGCCAGUGAAGAAAUGAACAAAGAAAAUCUGGGCCAGGCAGGCAUCAAAAGUAAUAGUCUUGCGUUCAACCAGAAAGUCUGUAAUCAUUUUAAGGGUA belongs 0.01.
To GUUAACGGUCAUAGGCCAUGGAAACUAGGAGCACCAUUUCGCUGCCAGUGAAGAAAUGAAUAAGGAAAAUCUGGGCCAGGCAGGCAUCAAAAGAAAUAGUCUUGCGCUCAACCAGAAAGUCUGUAAUCAUUUUAAGGGUA belongs 1.63; to GUUAACGGUCAUAGGCCAUGGAAACUAGGAGCACCAUUUCGCUGCCAGUGAAGAAAUGAACAAAGAAAAUCUGGGCCAGGCAGGCAUCAAAAGAAAUAGUCUUGCGCUCAACCAGUAAGUCAGUAAUCAUUUUAAGGGUA, 0.25; to GUUAACGGUCAUAGGCCAUGGAAACUAGGAGCACCAUUUCGCCGCCAGUGAAGAAAUGAACAAAGAAAAUCUGGGCCAGGCAGGCAUCAAAAGAAAUAGUCUUGCGCUCAACCAGAAAGUCUGUAAUCGUUUUAAGGGUA, 1.1.
To GUUAACGGUCAUAGGCCAUGGAAACUAGGAGCACCAUUUCGCUGCCAGUGAAGAAAAGAACAAAGAAAAUCUGGGCCAGGCAGGCAUCAAAAGAAAUAGUCUUGCGCUCAACCAGAAAGUCUGUAAUCAUUUUAAGGGCA belongs 0.25; to GUUAACGGUCAUAGGCCAUGGAAACUAGGAGCACCAUUUCGCUGCCAGUGAAGAAAUGAACAAAGAAAAUCUGGGCCAGGCAGGCAUCAAAAGAAAAAGUCUUGCGCUCAACCAGAAAGUCUGUAAUCAUCUUAAGGGUA, 1.62.
In the case of GUUAACGGUCAUAGGCCAUGGAAACUAGGAGCACCUUUUCGCUGCCAGUGAAGAAAUGAACAAAGAAAAUCUGGGCCAGGCAGGCAUCAUAAGAAAUAGUCUUGCGCUCAACCAGAAAGUCUGUAAUCAUUUUAAGGGUA, the self-cleavage is 1.74.
For GUUAACGGUCAUAGGCCAUGGAAACUAGGAGCACCACUUCGCAGCCAGUGAAGAAAUGAACAAAGAAAAUCUGGGCCAGGCAGGCAUCAAAAGAAAUAGUCUUGCGCUCAACCAGAAAGUCUGUAAUCAUUUUAAGGGUA, the self-cleavage is 1.55.
With GUUAACGGUCAUAGGCCAUGGAAACUAGGAGCACCACUUCGCUGCCAGUGAAGAAAUGAACAAAGAAAAUCUGGGCCAGUCAGGCAUCAAAAGAAAUAGUCUUGCGCUCAACCAGAAAGUCUGUAAUCAUUUUAAGGGUA, the self-cleavage stood at 0.11.
To GUUAACGGUCAUAGGCCAUGGAAACUAGGAGCACCAUUUCGCUGCCAGUGAAGAAAAGAACAAAGAAAAUCUGGGCCAGGCAGGCAUCAAAAGAAAUAGUCUUGCGCUCAGCCAGAAAGUCUGUAAUCAUUUUAAGGGUA belongs 0.02; to GUUAACGGUCAUAGGCCAUGGAGUCUAGGAGCACCAUUUCGCUGCCAGUGAAGAAAUGAACAAAGAAAAUCUGGGCCAGGCAGGCAUCAAAAGAAAUAGUCUUGCGCUCAACCAGAAAGUCUGUAAUCAUUUUAAGGGUA, 1.72; to GUUAACGGUCAUAGGCCACGGAAACUAGGAGCACCAUUUCGCUGCCAGUGAAGAAAUGAACAAAGAAAAUCUGGGCCAGGCAGGCAUCAAAAGAAAUAGUCUUGCGCUCAACCAGAAAGUCUGUAAUCAUUUUAAGGGUG, 0.62.
For the variant GUUAACGGUCAUAGGCCAUGGAAACUAGGAGCACCAUUUCGCUGCCAGUGAAGAAAUGAACAGAGAAAAUCUGGGCCAGGCAGGCAUCAAAAGAAAUAGUCUUGCGCUCAACCAGCAAGUCUGUAAUCAUUUUAAGGGUA, the self-cleavage worked out at 0.13.
Consider GUUAACGGUCAUAGGCCAUGGAAACUAGGAGCACCAUUUCGCUGCCAGUGAAGAAAUGAACAAAGAAAAUCUGGGCCAGGCUGGCAUCGAAAGAAAUAGUCUUGCGCUCAACCAGAAAGUCUGUAAUCAUUUUAAGGGUA, for which the self-cleavage is 0.1.
To GUUAACGGUCAUAGGCCAUGGAAACUAGGAGCACCAUUUCGCUGCCAGUGAAGAAAUGAACAAAGAAAAUCUGGGCCAGGCAGGCAUCAAAAGAAAUAGUCUUGCGCUCAUCCAGAAAGACUGUAAUCAUUUUAAGGGUA belongs 0.08; to GUUAACGGUCAUAGGCCAUGGAAACUAGGAGCACCAUUUCGCUGCCAGUGAAGAAAUGAAGUAAGAAAAUCUGGGCCAGGCAGGCAUCAAAAGAAAUAGUCUUGCGCUCAACCAGAAAGUCUGUAAUCAUUUUAAGGGUA, 1.87.
Consider GUUAACGGUCAUAGGCCAUGGAAACUAGGAGCACCAUUUCGCUGCCAGUGAAGAAGUGAACAAAGAAAAUCUGGGCCAGGCAGGCAUCAAAAGAAAUAGUCGUGCGCUCAACCAGAAAGUCUGUAAUCAUUUUAAGGGUA, for which the self-cleavage turned out to be 0.89.
To GUUAACGGUCAUAGGCCAUGGAAACUAGGAGCACCAUUUCGCUGCCAGUGAAGAAAUGAACAAAGAAAAUCUGGGCCAGGCAGGCAUCAAGAGAAAUAGUCUUGCGCUCAACCAGAAUGUCUGUAAUCAUUUUAAGGGUA belongs 0.53; to GUUAACGGUCAUAGGCCAUGGAAACCAGGAGCACCAUUUCGCUGCCAGUGAAGAAAUGAACAAAGAAAAUCUGGGCCAGGCAGGCAUCAAAAGAAUUAGUCUUGCGCUCAACCAGAAAGUCUGUAAUCAUUUUAAGGGUA, 1.89.
Under GUUAACGGUCAUAGGCCAUGGAAACUAGGAGCACCAUUUCGCUGCCAGUGAAGAUAUGAACAAAGAAAAUCUGGGCCAGGCUGGCAUCAAAAGAAAUAGUCUUGCGCUCAACCAGAAAGUCUGUAAUCAUUUUAAGGGUA stands 0.28.

The values are drawn from the RNAGym collection of RNA variant scans (doi:10.7554/elife.90254).
